The source of these data is a protein production outcome set (Wang et al. 2014).

The data set can be described thus: label from the status in PepcDB records.
As for “MTVRLTFMCATAGGTTRDAVFGDGLLSERGLRRARAAGATLPPYSLAIRAPSVRCAQTAYALGLPTTLEPALRDLDYGTWRGRTVGEVVADEPYGYSAWLTDPDAAPHGGESVRRLCRRIANWLSSVPPYPGRALVITEPSVVRASLVHALSAPVTAFRHFDVPPLSTVSLTLSDGHWIVRPGRVTPDRVGTSRAVPTPYDAAEGRTALLWGEATPA”, the protein production result is “failed”. Consider “MGSSARFRGRTDTMLLTRFNPENGTITVLSIPRDTRVEIPGYGTSKINAANVYGDVELTVQVVSQTLNYTPIDRYIRINTDAFRELVDLVGGVEVNVPKRMVYTDHTQKLYIDLQPGLQTLNGEQAEGFVRFRYDELGDIGRAQRQQLLIKALQEKLANPVMLTQLPKLYSVLQKYVDTDLTFAELMAIAQFSLRIQPDNLHLILLPGHFSGDGYGTSYWLPDYDRIDRVVAEHFSDRPSKLVDQRGSETGTLRIALQNASGSSGAAQDMADFLARHGYTNVLISEDWYQQTSETEIVAQQGDLGAAQVIRSVLGMGRVSANSTGVLSSDITIRIGRDWAAVLHLEHHHHHH”, for which the protein production entry is recorded as “failed”. In the case of “MADSAELKQMVMSLRVSELQVLLGYAGRNKHGRKHELLTKALHLLKAGCSPAVQMKIKELYRRRF” it was “not failed”. With “FATTDDVILLWRQLSVDEIKRAEALLETVSDTLRLEASKVGKNLDEMILETPYFATVLKSVTVDIVARTLMTATQGEPMSQESQSALGYTWSGTYLVPGGGLFIKDSELKRLGLKKQRYGGI”, the protein production result is listed as “failed”.

Turning to “MDTGPDQSYFSGNHWFVFSVYLLTFLVGLPLNLLALVVFVGKLRCRPVAVDVLLLNLTASDLLLLLFLPFRMVEAANGMHWPLPFILCPLSGFIFFTTIYLTALFLAAVSIERFLSVAHPLWYKTRPRLGQAGLVSVACWLLASAHCSVVYVIEFSGDISHSQGTNGTCYLEFWKDQLAILLPVRLEMAVVLFVVPLIITSYCYSRLVWILGRGGSHRRQRRVAGLVAATLLNFLVCFGPYNVSHVVGYICGESPVWRIYVTLLSTLNSCVDPFVYYFSSSGFQADFHELLRRLCGLWGQWQQESSMELKEQKGGEEQRADRPAERKTSEHSQGCGTGGQVACAEN”, the protein production entry was “failed”. For “MTEEFNESMINDIKEGDKVTGEVQQVEDKQVVVHINGGKFNGIIPISQLSTHHIENPSEVVKVGDEVEAYVTKIEFDEENDTGAYILSKRQLETEKSYEYLQEKLDNDEVIEAEVTEVVKGGLVVDVGQRGFVPASLISTDFIEDFSVFDGQTIRIKVEELDPENNRVILSRKAVEQLENDAKKASILDSLNEGDVIDGKVARLTNFGAFINIGGVDGLVHVSELSHGTCSNTRRSCVSRLEHHHHHH”, the protein production result is recorded as “not failed”. As to “NPDYVEVDRILEVAHTKDAETGEEVTHYLVKWCSLPYEESTWELEEDVDPAKVKEFESLQV”, the protein production result is reported as “not failed”. Under “MMKLMFASDIHGSLPATERVLELFAQSGAQWLVILGDVLNHGPRNALPEGYAPAKVAERLNEVAHKVIAVRGNCDSEVDQMLLHFPITAPWQQVLLEKQRLFLTHGHLFGPENLPALNQNDVLVYGHTHLPVAEQRGEIFHFNPGSVSIPKGGNPASYGMLDNDVLSVIALNDQSIIAQVAINP” stands “not failed”. In the case of “MNHHHHNHHGEAGFKRKVDYLDRPERSEVLAPEEFLQRIPMEKTASILDLGAGTGFLTIPAAKKVENTVFALDLDTKMLELIETKAKTAELANVKTLEASMDDIPLETSSVDVVLASLVLHEADSLADVLREVSRVVKTGGYFASLEFDTKGTDLKGPPMEIQISAEKLKEELAGFGFEVVQNWELDEGMYVSIAEKKE” it was “failed”; in that of “MDHAAVLALFDRDMREGARPDGPGARIERVPGVVRQVASEHGWNGVVWSGLDEASADAAIAEQQRYFAGLGREFEWKLYGHDLPEDLGRRLRAAGFTAAPEETLMVAEVADLTLDVEPPDGVRIVPVTDRAGVDLVADVHEKAFGTDSTRMRHQLLAQVTDDPDAVVAVVALAGDEPVSAARMELVPGTRFAGLWGGGTVEGERGRGIYRALVAHRAKVAADRGYRYVQVDATSQSRPVLARLGFEPLTTTTPYVSP”, “not failed”. Under “SNTPSAEADWSPGLELHPDYKTWGPEQVCSFLRRGGFEEPVLLKNIRENEITGALLPCLDESRFENLGVSSLGERKKLLSYIQRLVQIHVDTMKVI” stands “not failed”. As to “MGSSGDLANSAERKLDDEKKRCDWRFTDNTPLIAACLLTGAVVLGVHYISICKDRTDISLPTLMESIESKCRSLGDAFNASAPESVLHPVPTQIGVAIWVAREEWSLPVHDTLDRIEKVVSGAGNRKQQFIQRIVRVSQLGSDGNLEKSSSSSTKWGGSSKVSQDPLANAAIKQQLGLSVAKHAYAVSLKEELLMHTISFFAAPPSAAKSVRCFLFDDKRAYCTVSTEMGMETTKREVEAAVATLLANWLEIENFRDANATQRWAMMRKVRGCHYALRALRQLKMSVDAHPEMPVPEGVRGAADRLEKLVRESDFAKLARAAADLQFHQLLLPQIYIPWDQAVVNHLSILMPVYGVITLAVRLIKENRKRAQVVQNS”, the protein production entry is reported as “failed”. In the case of “MTPYQGEPLSLNFQDVEVRAVLQVLADYAGVNLVASDAVQGSVTLRLQDVPWDQALDLVLRSKGLSRRQEGNVLLVAPAAEFAAQSADARVSQALDAHLQPLRRELLPIHHAKAADLAQLLLAGLEGDGIPPASLSVDERTNTLVVHLPADRLAEMRQLVAQLDVPVRQVAIEARIVEANVDYEKSLGVRWGGPLYGEKLRPGKELFVDLGLERAGSSIGLGLLRGDVLLDLELSAMEKSGNGEIISQPKVVTADKETARILKGTEVPYQETSQSGATSVSFREASLSLEVTPQITPDNKVIMTVRVTKDEPDYVNALNNVPPIRKNEVNAKVRVADGETIVIGGVYSTSQNNVVDKVPFFGDLPYVGRLFRRDALQEKKSELLVFLTPRIMSDQAIAVSRLEHHHHHH” it was “failed”; in that of “MVDQNPEEYYSKGILQYDDGNYTESIDLFEKAIQLNPEESKYWLMKGKALYNLERYEEAVDCYNYVINVIEDEYNKDVWAAKADALRHIEGKEVEAEIAEARAKLEHHHHHH”, “not failed”.

With “MGAAGGGWRMSERHLRRSTHKVGDVTLGPVHRLSCHCGAVQIDLDLPHGLLDPRRCDCSMCRRRGAIVASVSLDGLHVLQGEDVLRLYQFNTQTAAHYFCGVCGIYTHHRRRSNPNEYGYNVGCLEGVNPYALNIAVPVEDGVNHPADRVTAAS”, the protein production entry was “failed”. Take “MLKKGNEMKAVIVYASVHHGNTKKIEEAMASVISADVIDVTRKIKPDLSGYDVIGFVSGVYFHTFHEGIKKCIEENMSSKGQKVFLVATCGLGYRDYTKGMKDTLAKKDVLCMGSFQCRGWDTYGIFGKIGGIAKKHPNDRDLKEAQEFVLKTVCKTNNLEHHHHHH”: the protein production entry was “failed”. For “MAVALLGNRDGQAFLATLFDLARRGHVTLRHDREDQAFGTTDVVRLETHPAPNDLSDFERRLVDTLGEYETLDDFWSDTRSFRSDVMSDVRGVLFERGWMENHTVRSGLLLGGALVALLGGFAAVVTGDSALRFYLLFGGMGVSLGGFIAAVRQYTWTEDGARRAMALRAYLDHEKSEIERLRETSPARAAERLVDALPWLLLHDEVSRAWIEETKEALDAADEVPELPDGFVSLVETEGSARAPVAAFLPVVTVMGAVESSSAGAVGAAGASGAAGAAGGGAGAAGAA”, the protein production entry is “failed”.

Consider “MDRNEVRHAWDSVSETYAERRDPTGSDAALLEDLLERLPEAPTVLDVGCGDGARTLANLPPRSVGLDFSRAGLDLAAETVPDSRLVQGDMGSLPVTTDSVDAITAYHAVFHVQRDQHPEVYREFARVLRPGGTVLMTLPSGQFETVRRGWMGGSMFFSAPGRRATLDQLADAGFTETETVTATDPLGSDSEFVFATLADALEHHHHHH”, for which the protein production result was “not failed”. On to “MKKILGTLLAVLFSFMAINDSAAQNTVLRFNKDGKFKIVQFTDVHFKYGNPASDVALERIGEVLDAEHPDLVIFTGDVVYSSPADKGMLQVLGQVERRHLPFVVTFGNHDNEQGKTRAELYDLIRGVAGNLLPDRGASPSPDYILTMKSSADASKDAALLYCMDSHSYSSLKDVDGYAWLTFGQVSWYRAQSAAYTARNGGKPYPALAFFHIPLPEYNEAAANENAILRGTRMEKACAPQLNTGMFAAMKEAGDVMGVFVGHDHDNDYAVMWKNILLAYGRFTGGNTEYNHLPNGARVIVLNEGTRTFETWIRQKGGVVDSTSYPSDYVKDDWRKR”, for which the protein production entry is reported as “failed”. Consider “MEKSLLVIVRHKPGRTRLLIRALQSINDQTFKKINIIIFCMEEELKCHNVDDFYLKELSNIYSVIYDENCIFNAIKMSESNYLCFMDDDDSWAPEYVSRLLSVLANIQSTYSSVNAIACHTNKVAEIAENNRIIINSTQPWNHYLNAGPVSFDVIYYRNSIPLSSCLFDRNSVIDVIESHKLSSPAFFWPFFIHYLAENDVWILPEALAFYHFRENDDFEFGNYTVINNELFDIECKIAENKMMRSIDDSSLLNVLLSNIANNSLFHKISYIENKIK”, for which the protein production result is reported as “failed”. Take “MLNPFEKLQIPPKANQTIDTMLKRLPKIGGTTVRDREIRRLKEYYERIKKYYDFVEQFPKIDELHPFYLEATRIMTDINKLRICLSVTKKTSVISMKILKKYINQIRKSPENESNRIMRQAFGRVSSVLRKSSECIDRVIDVAKELKKIQGIDPTLPTIVVAGPPNVGKSTLVSKISTAKPEIASYPFTTKEVHVGHVILDDFRIQVIDTPGILDRPEAERNRIERKATNAIRNLNGIIVFMFDSSISSVLSVEGQIELFREVKLLKKIVIPVINKIDEKYEEYYKKIVDFLLSEGNEWHEISAEKGIGIDKLKEELFNLVKSSGTNEVSRD”: the protein production entry is on record as “failed”. With “MRRRVAYARDYGDHIMGKFKFPTAYTILFVLIALVAAMTWIVPAGKYQMVTNAALGKEVPVAGTYAPVEAQPQGITAVLLAPIDGLYNHQTYTAGAIDVALFVLIIGGFLGVVNKTGAIDAGIERVTTRLNGREEWMIPILMALFAAGGTIYGMAEESLPFYTLLVPVMMAARFDPLVAAATVLLGSGIGTLGSTINPFATVIAANAAGIPFTQGILLRVILLLVGYVICVYWVMRYARKVRNSPESSIVADKMAENQAHFLGNRSETMLEFTPTRKAILILFAASFAFMIYGVAVLGWWMAEISAVFLAAAVIVGVIARMGEETFTSTFIDGARDLLGVALIIGIARGIVVVMDNGMITHTILHSAENLVSGLSTTVFINVTYWLEVLLSFLVPSSSGLAVLTMPIMAPLADFAHVQRDLVVTAYQSASGVVNLITPTSAVVMGGLAIARVPWVRYLRWVAPLLLILTMLNMIVLSIAAMI”, the protein production entry is given as “failed”.

As to “MNLTKVKGNTFFIKGGTNTGIYVFEDNTALMIDPGLCGSRPRRVNKVLDENNIQVRYIINTHGHDDHYGACNQFKEYYKDVCIMSSEYDKLYIENPELFSKYIVGGKSNVFMDNILKNKMLDDIKIDKSIEAGKFELNNEMFDIIEFQGHTPGSIAVLTKDNVIFVGDLLIGDEILSKYDFLFLYDIQEQINSLEKLKNIDFEYLVLGHGKQVISKEDSYKLIEKHLNALKKYLYQIRELLVEPKSLEILLKNIINNNNLSNNYKEYHFFKSSLVSVISYLVDLEEIGYILENGELLYYTKTK”, the protein production entry is listed as “failed”. “MVTLSDPNRRSRRIKRITIVGCLGNLLLTIGKFFSGFVGHSGAMIADAVHSLSDLLTDFVVFIFISISGKPSDKNHDYGHGKFETLATAIIAVTLIIIGAMLCSDGLTKVYRYLRFGDELARPGLIALLMAFVSIVAKEWLFRITRCVGKEENSRSVIANAWHHRSDAYTSVATFIGIGCAFLLGRGWMILEPLSAAVVSVFIIKVGFQMAVPAFRDLLEQSLPDDIEEEIEKIICSESMVKGVRRIRTRNIGNYYAVEADILMDGGLSVALSHAATQRVEKLLRGRYGQPTHIVIHVEPFS”: the protein production entry is “failed”.

For “LRARTYGEGGFRVERVLEERPAFTRVQFSYLSDGLRVHGFANLPKGRGPFPVVVVLHGYVEPSRYRLLAYTTPYADFLAERGYLVLHPNFRGHPPSEGAPAQGLRHVYAVDVLNLLAEVRRGAFPQADPAR”, the protein production entry is reported as “failed”.
